Article PMC4374768

Experiments:
[1] = target: T1, His6-TyrR (Enterobacter cloacae UW5?) (UniProt B2D1S2); assay: EMSA; conditions: 20% glycerol, 250 mM NaCl, 50 mM Tris-Cl pH 7.5, 5 mM MgCl2, 2.5 mM DTT, 2.5 mM EDTA, 0.1 mM ATP, 0.1 mM Trp, Phe or Tyr, 1 ug poly d(I-C), 50 ng DNA, room …
T1 sequence: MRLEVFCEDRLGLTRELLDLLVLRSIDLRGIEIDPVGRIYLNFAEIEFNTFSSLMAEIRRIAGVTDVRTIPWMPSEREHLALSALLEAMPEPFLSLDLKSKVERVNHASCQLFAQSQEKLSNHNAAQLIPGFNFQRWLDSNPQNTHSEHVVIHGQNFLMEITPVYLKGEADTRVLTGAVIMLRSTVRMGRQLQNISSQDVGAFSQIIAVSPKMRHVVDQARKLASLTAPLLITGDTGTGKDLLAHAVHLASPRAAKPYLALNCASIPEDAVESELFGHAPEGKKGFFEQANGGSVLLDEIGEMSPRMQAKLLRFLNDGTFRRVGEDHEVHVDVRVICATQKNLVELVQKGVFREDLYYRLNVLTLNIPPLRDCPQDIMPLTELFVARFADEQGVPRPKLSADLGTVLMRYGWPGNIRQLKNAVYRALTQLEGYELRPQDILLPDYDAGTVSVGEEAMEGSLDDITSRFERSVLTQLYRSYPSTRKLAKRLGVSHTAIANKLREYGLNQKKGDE

[2] = target: T1, His6-TyrR (Enterobacter cloacae UW5?); assay: competition; conditions: 20% glycerol, 250 mM NaCl, 50 mM Tris-Cl pH 7.5, 5 mM MgCl2, 2.5 mM DTT, 2.5 mM EDTA, 0.1 mM ATP, 0.1 mM Trp, Phe or Tyr, 1 ug poly d(I-C), 50 ng DNA, room …

Row | Sequence | binding [1] | binding [2]
1 | GGTTCGCATAACAGGTGTCCTTCTGACGTTGACCTCACTTTGAGTATTAAAGAAGCGTGATGGCTGTCCAGAATTGGTCGTAAGAAGGGCATGGAAAGAATGCTTTACAAAAAAGGCTGCGCTATGCTCTTTTTTTTCATATAAATATAAACGTATATACTGATTTTTCCTTTCAGCGCCAGAGGGCATCAGAATGGG (double strand) [akr-ipdC weak box mutant] | binds | –
2 | GGTTCGCATAACAGGTGTCCTTCTGACGTTGACCTCACTTTGAGTATTAAAGAAGCGTGATGGCTGTCCAGAATTGGTCGTAAGAAGGGCATAGAAAGAATGCTTTATAAAAAAGGCTGCGCTATGCTCTTTTTTTTCATATAAATATAAACGTATATACTGATTTTTCCTTTCAGCGCCAGAGGGCATCAGAATGGG (double strand) [akr-ipdC double weak and strong box mutant] | no binding | –
3 | GGTTCGCATAACAGGTGTCCTTCTGACGTTGACCTCACTTTGAGTATTAAAGAAGCGTGATGGCTGTCCAGAATTGGTCGTAAGAAGGGCATAGAAAGAATGCTTTATAAAAAAGGCTGCGCTATGCTCTTTTTTTTCATGTAAATGTAAACGTATACACTGATTTTTCCTTTCAGCGCCAGAGGGCATCAGAATGGG (double strand) [akr-ipdC strong box mutant] | binds more weakly | –
4 | GGTTCGCATAACAGGTGTCCTTCTGACGTTGACCTCACTTTGAGTATTAAAGAAGCGTGATGGCTGTCCAGAATTGGTCGTAAGAAGGGCATGGAAAGAATGCTTTACAAAAAAGGCTGCGCTATGCTCTTTTTTTTCATGTAAATGTAAACGTATACACTGATTTTTCCTTTCAGCGCCAGAGGGCATCAGAATGGG (double strand) [akr-ipdC intergenic region wild-type] | binds | binds
